From US20220195055A1 (SHANDONG BOAN BIOTECHNOLOGY, published 2022)
Read-outs that look alike come from different tables or passages of the source.

T1: CD25 on cells (SU-DHL-1 target cells; PBMC) (UniProt P01589 22-272, limits assumed)
T1 sequence (looked up): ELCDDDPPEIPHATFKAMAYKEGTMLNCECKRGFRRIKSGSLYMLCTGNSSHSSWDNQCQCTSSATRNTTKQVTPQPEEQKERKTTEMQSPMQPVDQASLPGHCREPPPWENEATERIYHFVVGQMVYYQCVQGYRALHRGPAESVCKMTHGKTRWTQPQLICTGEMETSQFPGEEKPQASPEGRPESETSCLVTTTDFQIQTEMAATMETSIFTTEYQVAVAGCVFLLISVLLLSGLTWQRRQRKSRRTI

T2: CD25 protein (Sino Biological, 10165-H08H) (UniProt P01589 22-213)
T2 construct: Bought recombinant protein; It speaks elsewhere of human CD25; also called antigen CD25; IL-2Rα
T2 sequence (looked up): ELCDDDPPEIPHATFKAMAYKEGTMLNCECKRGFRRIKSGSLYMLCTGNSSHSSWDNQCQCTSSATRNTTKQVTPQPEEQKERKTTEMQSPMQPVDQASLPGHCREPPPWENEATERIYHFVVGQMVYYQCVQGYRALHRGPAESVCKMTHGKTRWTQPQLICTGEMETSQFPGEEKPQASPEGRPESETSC


Key:
[1] = target: T1, CD25 on cells (SU-DHL-1 target cells; …); experiment: cell-based or functional assay
[2] = target: T1, CD25 on cells (SU-DHL-1 target cells; …); experiment: cell-based or functional assay; remark: listed apart in the source
[3] = target: T2, CD25 protein (Sino Biological, …); experiment: ELISA; CD25 protein coated in a dilution series, antibody at one fixed concentration, anti-human IgG/HRP
Source text: (§1) The results are shown in FIG. 2A to FIG. 2E and Table 2 to Table 6.

[4] = target: T2, CD25 protein (Sino Biological, …); experiment: SPR (BIAcore 8K); antibody captured by anti-human IgG Fc, CD25 protein as analyte, 1:1 model
Method: Antibody binding kinetics uses BIAcore8K instrument based on surface plasmon resonance (SRP) technology to measure. Anti-human IgG antibody amino was coupled to a CMS biosensor chip by the GE anti Human IgG Fc amino coupling kit (GE, cat # BR-1008-39) to obtain approximately 1000 response units (RU). For kinetic measurements, the CD25 protein (Sino Biological, 10165-H08H) was diluted 2-fold continuously with HBS-EP+1×(GE, BR-1008-26) buffer, starting at 50 nM, being diluted 2-fold for 4 concentration gradients and setting 0 concentration. The antibody to be detected: 2 μg/ml, sample injection time 70 s, flow rate 5 μL/min, stable for 5 s; CD25 protein: binding for 60 s, flow rate 30 μL/min, dissociation for 450 s; regeneration: regeneration was performed for 30 s with 3M MgCl₂ buffer, Startup 3 times. The association constant (ka) and dissociation constant (kd) were calculated using a simple one-to-one Languir binding model (BIAcore Evaluation Software version 3.2), and the equilibrium dissociation constant (KD) was calculated by the ratio kd/ka.

[5] = target: T1, CD25 on cells (SU-DHL-1 target cells; …); experiment: cell-based or functional assay; remark: listed apart in the source
[6] = target: T2, CD25 protein (Sino Biological, …); experiment: ELISA; CD25 protein coated in a dilution series, antibody at one fixed concentration, anti-human IgG/HRP; remark: listed apart in the source
Source text: as §1

[7] = target: T2, CD25 protein (Sino Biological, …); experiment: as above; remark: listed apart in the source
Source text: as §1

[8] = target: T2, CD25 protein (Sino Biological, …); experiment: as above; remark: listed apart in the source
Source text: as §1

| Binder | % PSTAT5 in CD3 positive T cells of PBMC after IL2, with 10 µg/mL antibody [1] | EC50 [3] | Kd [4] | koff [4] | kon [4] | EC50 [6] | EC50 [7] | EC50 [8] | EC50 of simulated killing activity (Jurkat effector reporter cells, SU-DHL-1 target cells, luminescence) [2] | EC50 of simulated killing activity (Jurkat effector reporter cells, SU-DHL-1 target cells, luminescence) [5] |
| --- | --- | --- | --- | --- | --- | --- | --- | --- | --- | --- |
| CD25Q11-BA422-IgG1 (antibody, V domains shown, IgG1 expressed in HEK293) VH: QVQLVQSGAEVKKPGSSVKVSCKASGGTFSSSAISWVRQAPGQGLDWMGRIIPLLNIADYAQKFQGRVTFTADKSTNTAYMELSSLRSEDTAVYYCARDGSGYDSNYWYFDLWGRGTLVTVSS VL: not shown | 18.1% | 1.3 ng/mL | – | – | – | – | – | – | 836 ng/mL | – |
| CD25Q14-CA721-IgG1 (antibody, V domains shown, IgG1 expressed in HEK293) VH: QVQLVQSGAEVKKPGESLKISCKGSGYSFANYWIVWVRQMPGKGLEWMGIIYPDDSETRYSPSFQGQVTFSADKSISTAYLQWSSLKASDTAMYYCTRGPYYSDYWGQGTLVTVSS VL: not shown | – | – | 536 pM | 0.000365 s⁻¹ | 680000 M⁻¹ s⁻¹ | 3.25 ng/mL | – | – | – | 288 ng/mL |
| CD25Q14-CA705-IgG1 (antibody, V domains shown, IgG1 expressed in HEK293) VH: EVQLVQSGAEVKKPGESLKISCKGSGYSFANYWIVWVRQMPGKGLEWMGIIYPDDSETRYSPSFQGQVTFSADKSISTAYLQWSSLKASDTAMYYCTRGPYYSDYWGQGTLVTVSS VL: DIQMTQSPSTLSASVGDRVSITCRASQSIGSWLAWYQQKPGKAPKLLIFEASNLESGVPSRFSGSGSGTEFTLTISNLQPDDFATYYCQQYNSYSLTFGGGTKVEIKR | – | – | 1970 pM | 0.000752 s⁻¹ | 381000 M⁻¹ s⁻¹ | – | 4.77 ng/mL | – | 409 ng/mL | – |
| CD25Q14-CA707-IgG1 (antibody, V domains shown, IgG1 expressed in HEK293) VH: EVQLVQSGAEVKKPGESLKISCKGSGYSFSNYWIGWVRQMPGKGLEWMGIISPGDSTTKYSPSFQGQVTFSADKSTSTAYLQWSSLQASDTAMYYCVRGPYYLDYWGQGTLVTVSS VL: not shown | – | – | 2850 pM | 0.000944 s⁻¹ | 331000 M⁻¹ s⁻¹ | 6.42 ng/mL | – | – | – | 248 ng/mL |
| CD25Q11-CA36-IgG1 (antibody, V domains shown, IgG1 expressed in HEK293) VH: QVQLVQSGAEVKQPGSSVKVSCKTSGGTFGSSAINWVRQAPGQGLEWMGRIIPIFGVSNFAQKFQGRVTITADKSTNTAYMELSSLRSEDTAVYYCARDGSGYDSNYWYFDLWGRGTLVTVSS VL: not shown | – | – | 1610 pM | 9.66e-05 s⁻¹ | 60200 M⁻¹ s⁻¹ | – | 2.41 ng/mL | – | – | – |
| CD25Q11-BA406-IgG1 (antibody, V domains shown, IgG1 expressed in HEK293) VH: EVQLVQSGAEVKKPGESLKISCKGSGYSFTNYWIAWVRQMPGKGLEWMGIIYPGDSVTRYSPSFQGQVTISADKSINTAYLQWSSLRASDTAMYYCARGPYYFEYWGQGTLVTVSS VL: DIVMTQSPSTLSASVGDRVTITCRASQSISSFLAWYQQKPGRAPELLIYKASTLESRVPSRFSGSGSGTEFTLTISSLQPEDFATYYCQQYKSFSWTVGQGTKVEIKR | – | – | – | – | – | – | 0.651 ng/mL | – | – | – |
| CD25Q2-BA9-IgG1 (antibody, V domains shown, IgG1 expressed in HEK293; also called CD25Q-BA9-IgG1) VH: QVQLQQWGAGLLKPSETLSLTCAVYGGSFSGYYWSWIRQPPGKGLEWIGEIDHSGSTIYNPSLKSRVTISLDTSKNQFSLKLSSVTAADTALYYCARGEAFDIWGQGTMVTVSS VL: DIVMTQSPSTLSASVGDRVTITCRASQSLRSYLAWYQQKPGKAPKLLIYKASSLESGVPSRFSGSGSGTEFTLTISSLQPDDFATYYCQQYNSYSWTFGQGTKVEIKR | 26.1% | – | 843 pM | 0.000586 s⁻¹ | 696000 M⁻¹ s⁻¹ | – | – | 3.33 ng/mL | 236 ng/mL | – |
| CD25Q11-BA410-IgG1 (antibody, V domains shown, IgG1 expressed in HEK293) VH: QVQLQQWGAGLLKPSETLSLTCAVYGGSFSGHYWSWIRQSPGKGLEWIGEIDHSGNAIYNPSLKSRVTISIDTSKNQFSLKLSSVTAADTAVYYCARGEAFDLWGQGTMVTVSS VL: not shown | 16.8% | – | 4810 pM | 0.00674 s⁻¹ | 1.4e+06 M⁻¹ s⁻¹ | – | 16.8 ng/mL | – | 215 ng/mL | – |

More lines, in order of falling Kd [4], values ahead:

| % PSTAT5 in CD3 positive T cells of PBMC after IL2, with 10 µg/mL antibody [1] | EC50 [3] | Kd [4] | koff [4] | kon [4] | EC50 [6] | EC50 [7] | EC50 [8] | Binder | EC50 of simulated killing activity (Jurkat effector reporter cells, SU-DHL-1 target cells, luminescence) [2] | EC50 of simulated killing activity (Jurkat effector reporter cells, SU-DHL-1 target cells, luminescence) [5] |
| --- | --- | --- | --- | --- | --- | --- | --- | --- | --- | --- |
| – | 1.06 ng/mL | 1480 pM | 0.000201 s⁻¹ | 136000 M⁻¹ s⁻¹ | – | – | – | CD25Q14-BA443-IgG1 (antibody, V domains shown, IgG1 expressed in HEK293) VH: EVQLVQSGAEVKKPGESLKISCKGSGYSFSNYWIGWVRQMPGKGLEWMGIISPGDSTTKYSPSFQGQVTFSADKSTSTAYLQWSSLQASDTAMYYCVRGPYYLDYWGQGTLVTVSS VL: DIQMTQSPSTLSASVGDRVTITCRASQSVSGYLAWYQQKPGKAPKLLIYKTSSLESGVPSRFSGSGSGTDFTLTISSLQAEDVAVYYCQQYYSTPWTFGQGTKVEIKR | – | 360 ng/mL |
| – | 2.68 ng/mL | 904 pM | 0.000531 s⁻¹ | 587000 M⁻¹ s⁻¹ | – | – | – | CD25Q14-BA448-IgG1 (antibody, V domains shown, IgG1; The VH is copied as printed. 'YVVGQG' near its end may be a misprint of 'YWGQG') VH: EVQLVQSGAEVKKPGESLKISCKGSGYNFANYWIVWVRQMPGKGLEWMGITYPDDSETRYSPSFQGQVTFSADKSISTAYLQWSSLKASDTAMYYCTRGPYYSDYWGQGTLVTVSS VL: DIQMTQSPSTLSASVGDRVTITCRASQSISSWLAWYQQKPGKAPKLLIYKASSLESGVPSRFSGSGSGTEFTLTISSLQPDDFATYYCQQYDRFSWTFGQGTKVEIKR | – | – |
| – | – | 614 pM | 0.000199 s⁻¹ | 323000 M⁻¹ s⁻¹ | – | 0.941 ng/mL | – | CD25Q11-BA415-IgG1 (antibody, V domains shown, IgG1 expressed in HEK293) VH: QVQLVQSGTEVKKPGESLKISCEGVGYSFTTYWIGWVRQMPGKGLEWMGIIYPGDSITRYSPSFQGQVTISADKSINTAYLQWSSLMASDTAMYYCVRGPHWGDYWGQGTLVTVSS VL: DIQMTQSPSTLSASVGDRVTITCRASQSISTWLAWYQQKPGKAPKLLIYKASSLESGVPSRFSGSGSGTEFTLTISSLQPDDFAAYYCQQYSSYSWTFGQGTKVEIKR | – | 233 ng/mL |
| – | – | 607 pM | 0.000212 s⁻¹ | 350000 M⁻¹ s⁻¹ | – | – | 0.674 ng/mL | CD25Q11-BA402-IgG1 (antibody, V domains shown, IgG1 expressed in HEK293) VH: QVQLVQSGAEVKKPGESLKISCKGSGYSFSNYWIAWVRQMPGKGLEWMGIIYPGDSATRYSPSFQGQVTISADKSINTAYLQWSSLRASDTAMYYCARGPYYFEYWGQGTLVTVSS VL: DIVMTQSPSTLSASVGDRVTLTCRASQSISSYLAWYQQKPGKAPKLLIYKASTLESGVPSRFSGSGSGTEFTLTISSLQPDDFATYYCQHYNSYSVTFGGGTKVEIKR | 443 ng/mL | – |
| – | 1 ng/mL | 596 pM | 0.000216 s⁻¹ | 362000 M⁻¹ s⁻¹ | – | – | – | CD25Q14-BA458-IgG1 (antibody, V domains shown, IgG1 expressed in HEK293) VH: EVQLVQSGAEVKKPGESLKISCKGSGYSFSNYWIGWVRQMPGKGLEWMGIISPGDSTTKYSPSFQGQVTFSADKSTSTAYLQWSSLQASDTAMYYCVRGPYYLDYWGQGTLVTVSS VL: not shown | – | 266 ng/mL |
| – | – | 431 pM | 0.000301 s⁻¹ | 699000 M⁻¹ s⁻¹ | – | – | 1.61 ng/mL | CD25Q3-BA125-IgG1 (antibody, V domains shown, IgG1; also called CD25Q2-BA125) VH: EVQLVQSGAEVKKPGESLKISCKGSGYSFANYWIVWVRQMPGKGLEWMGIIYPDDSETRYSPSFQGQVTFSADKSISTAYLQWSSLKASDTAMYYCTRGPYYSDYWGQGTLVTVSS VL: DIQMTQSPSTLSASVGDRVTITCRASQIISGYLAWYQQKPGKAPKLLIYKASSLESGVPSRFSGSGSGAEFTLTISSLQPDDFATYYCQQYNSYTWTFGQGTKVEIKR | 251 ng/mL | – |
| – | 0.597 ng/mL | 379 pM | 0.00021 s⁻¹ | 555000 M⁻¹ s⁻¹ | – | – | – | CD25Q11-BA428-IgG1 (antibody, V domains shown, IgG1 expressed in HEK293) VH: QVQLVQSGAEVKKPGESLKISCKGSGYSFTNYWIVWVRQMPGKGLEWMGIISPGDSTTRYSPSFQGQVTFSADKSISTAYLQWSSLKASDTAMYYCAIGPYYLEYWGQGTLVTVSS VL: not shown | 217 ng/mL | – |
